This is an account of results in patent US20140329275A1, “BIOCATALYSIS CELLS AND METHODS” (REGENTS OF THE UNIVERSITY OF MINNESOTA, priority 2011, published 2014).

Substrate in this data set: CC(C)CC=O
The data set is described as follows: Enzymatic assay of PadA. In kind it is biochemical, E. coli. The settings on record: other: 0.5 mM NAD+, pH 8.0, 25 nM PadA. How it is done:
Protein concentration was measured by UV absorbance at 280 nm. […] Enzymatic reactions were initiated by adding 25 nM PadA. The reactions were monitored by measuring the UV absorbance at 340 nm (extinction coefficient, 6.22 mM^−1 cm^−1) as a consequence of NADH generation.

B1: PadA (Escherichia coli K-12) (protein)
chain: MTEPHVAVLSQVQQFLDRQHGLYIDGRPGPAQSEKRLAIFDPATGQEIASTADANEADVDNAVMSAWRAFVSRRWAGRLPAERERILLRFADLVEQHSEELAQLETLEQGKSIAISRAFEVGCTLNWMRYTAGLTTKIAGKTLDLSIPLPQGARYQAWTRKEPVGVVAGIVPWNFPLMIGMWKVMPALAAGCSIVIKPSETTPLTMLRVAELASEAGIPDGVFNVVTGSGAVCGAALTSHPHVAKISFTGSTATGKGIARTAADHLTRVTLELGGKNPAIVLKDADPQWVIEGLMTGSFLNQGQVCAASSRIYIEAPLFDTLVSGFEQAVKSLQVGPGMSPVAQINPLVSRAHCDKVCSFLDDAQAQQAELIRGSNGPAGEGYYVAPTLVVNPDAKLRLTREEVFGPVVNLVRVADGEEALQLANDTEYGLTASVWTQNLSQALEYSDRLQAGTVWVNSHTLIDANLPFGGMKQSGTGRDFGPDWLDGWCETKSVCVRY
notes: made in house
For B1, the Km (usually the substrate concentration at which the rate is half of its maximum) worked out at 1946 µM and the kcat – broadly, the maximal rate divided by the concentration of active sites – came to 18.6 s⁻¹.
